Assay results taken from doi:10.1101/2020.11.20.391094.

Columns and labels:
[1] = target: His-SctV, full length, synthesized in C41; also reconstituted in peptidiscs (His-SctV9-PR) (enteropathogenic E. coli (EPEC)); assay: native gel or EMSA
[2] = target: His-SctV, full length, synthesized in C41; also reconstituted in peptidiscs (His-SctV9-PR) (enteropathogenic E. coli (EPEC)); assay: SEC-MALS
[3] = target: SctV, full length, untagged, plasmid-borne in E. coli C41 (enteropathogenic E. coli (EPEC)); assay: native gel or EMSA
[4] = target: His-SctV-C, isolated C-terminal cytoplasmic domain of EPEC SctV (enteropathogenic E. coli (EPEC)); assay: native MS
[5] = target: His-SctV-C, isolated C-terminal cytoplasmic domain of EPEC SctV (enteropathogenic E. coli (EPEC)); assay: native gel or EMSA
[6] = target: His-SctV-C, isolated C-terminal cytoplasmic domain of EPEC SctV (enteropathogenic E. coli (EPEC)); assay: SEC-MALS

Substance: His-SctV, full length, synthesized in C41; also reconstituted in peptidiscs (His-SctV9-PR) (natural protein)
- stoichiometry N [1]: 9
- stoichiometry N [2]: 9

Substance: SctV, full length, untagged, plasmid-borne in E. coli C41 (natural protein)
- stoichiometry N [3]: 9

Substance: His-SctV-C, isolated C-terminal cytoplasmic domain of EPEC SctV (domain or fragment)
- stoichiometry N [4]: 9
- stoichiometry N [5]: 9
- stoichiometry N [6]: 9
